The source of these data is PMC7152798.

The target of assay [1] is GST-FMRP C-terminus deleted from the last 89 amino acids which includes the RGG motif (mouse). The assay can be described thus: pull-down; GST-fusion proteins made in yeast, immobilised on glutathione sepharose 4B beads and incubated at 4 °C with lysate of tsA-201 cells transfected with CaV2.2/α2δ-1/β1b; washed four times with ice-cold 1% Triton-PBS; blots with CaV2.2 II-III loop Ab and GST Ab; bands quantified as a percentage of CT.

The target in assay [2] is GST-FMRP C-terminus deleted from the last 63 amino acids (mouse). The assay is described as above.

Chain of calcium channel CaV2.2 (Q05152 whole entry): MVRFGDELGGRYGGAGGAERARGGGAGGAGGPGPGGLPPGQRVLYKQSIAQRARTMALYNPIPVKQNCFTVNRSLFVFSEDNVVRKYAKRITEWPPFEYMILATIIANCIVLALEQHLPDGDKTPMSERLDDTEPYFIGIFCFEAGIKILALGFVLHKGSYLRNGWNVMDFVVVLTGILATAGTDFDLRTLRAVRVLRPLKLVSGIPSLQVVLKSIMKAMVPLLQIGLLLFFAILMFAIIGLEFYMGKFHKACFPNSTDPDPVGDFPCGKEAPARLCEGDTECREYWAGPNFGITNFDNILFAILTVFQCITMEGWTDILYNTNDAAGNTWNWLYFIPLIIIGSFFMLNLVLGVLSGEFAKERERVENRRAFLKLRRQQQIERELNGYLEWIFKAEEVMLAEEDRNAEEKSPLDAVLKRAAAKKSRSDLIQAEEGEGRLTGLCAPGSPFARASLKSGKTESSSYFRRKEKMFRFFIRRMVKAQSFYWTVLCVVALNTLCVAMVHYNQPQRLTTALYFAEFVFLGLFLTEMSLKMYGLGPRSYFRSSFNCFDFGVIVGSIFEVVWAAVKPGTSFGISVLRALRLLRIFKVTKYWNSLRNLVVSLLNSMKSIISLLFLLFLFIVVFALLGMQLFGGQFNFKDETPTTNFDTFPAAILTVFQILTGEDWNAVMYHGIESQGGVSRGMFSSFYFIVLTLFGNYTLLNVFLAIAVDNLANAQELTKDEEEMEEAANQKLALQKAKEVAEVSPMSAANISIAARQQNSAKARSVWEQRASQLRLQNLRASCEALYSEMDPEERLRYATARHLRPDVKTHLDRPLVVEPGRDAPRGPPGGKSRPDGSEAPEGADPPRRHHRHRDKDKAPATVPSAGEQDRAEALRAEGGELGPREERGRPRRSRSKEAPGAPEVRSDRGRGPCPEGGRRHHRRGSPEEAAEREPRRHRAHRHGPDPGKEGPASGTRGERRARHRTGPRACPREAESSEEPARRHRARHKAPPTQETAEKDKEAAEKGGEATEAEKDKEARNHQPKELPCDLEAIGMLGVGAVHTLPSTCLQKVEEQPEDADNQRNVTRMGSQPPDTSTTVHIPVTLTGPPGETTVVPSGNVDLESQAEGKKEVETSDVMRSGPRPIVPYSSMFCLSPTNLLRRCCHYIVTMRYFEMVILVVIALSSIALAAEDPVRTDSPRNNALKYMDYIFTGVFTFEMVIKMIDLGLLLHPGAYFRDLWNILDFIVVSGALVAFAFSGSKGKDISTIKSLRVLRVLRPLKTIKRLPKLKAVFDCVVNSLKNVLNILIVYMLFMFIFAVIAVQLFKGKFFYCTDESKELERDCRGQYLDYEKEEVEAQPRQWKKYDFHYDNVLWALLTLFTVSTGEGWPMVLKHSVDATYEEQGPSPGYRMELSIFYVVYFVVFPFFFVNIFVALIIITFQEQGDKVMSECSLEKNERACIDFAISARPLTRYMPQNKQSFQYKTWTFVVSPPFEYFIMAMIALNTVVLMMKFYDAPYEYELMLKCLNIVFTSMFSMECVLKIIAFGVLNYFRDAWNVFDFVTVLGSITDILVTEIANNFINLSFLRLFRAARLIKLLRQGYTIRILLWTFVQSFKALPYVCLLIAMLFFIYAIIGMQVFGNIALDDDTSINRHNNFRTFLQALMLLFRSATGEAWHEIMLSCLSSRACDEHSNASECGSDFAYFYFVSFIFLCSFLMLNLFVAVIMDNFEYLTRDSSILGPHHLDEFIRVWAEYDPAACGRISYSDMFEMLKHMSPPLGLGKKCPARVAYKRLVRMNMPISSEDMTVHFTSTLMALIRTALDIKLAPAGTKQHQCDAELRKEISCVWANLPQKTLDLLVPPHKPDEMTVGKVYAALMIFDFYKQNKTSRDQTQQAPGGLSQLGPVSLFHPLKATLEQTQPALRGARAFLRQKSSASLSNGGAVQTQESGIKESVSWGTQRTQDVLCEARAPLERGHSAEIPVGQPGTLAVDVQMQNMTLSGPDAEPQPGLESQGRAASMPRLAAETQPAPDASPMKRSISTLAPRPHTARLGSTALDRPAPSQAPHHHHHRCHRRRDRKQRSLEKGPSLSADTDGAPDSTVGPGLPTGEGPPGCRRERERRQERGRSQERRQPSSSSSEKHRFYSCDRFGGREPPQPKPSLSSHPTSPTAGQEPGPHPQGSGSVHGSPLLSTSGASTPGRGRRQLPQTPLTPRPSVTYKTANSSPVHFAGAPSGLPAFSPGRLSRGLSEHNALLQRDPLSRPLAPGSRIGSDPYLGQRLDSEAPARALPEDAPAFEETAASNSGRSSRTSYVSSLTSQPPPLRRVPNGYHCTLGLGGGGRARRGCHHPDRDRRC

“calcium channel CaV2.2 (from UniProt Q05152 1-2339) (natural protein)”: the values for the reduction of the binding relative to CT in assay [1] and in assay [2] were 79.5% and 61.7%, respectively.
